The values that follow come from a protein production outcome set (Wang et al. 2014).

The nature of this data set: label from the status in PepcDB records.
Regarding “MISPELVKEALKKKKVRSEEAFGLEYLRFNDDYKDIPRGTAIFKDFIIWGYPHIGRIFLLETGLREQFEAPFWVEEKVDGYNTRIFKYGDNYYALSRGGFICPFTTDRLPDLIDLRILDENPDLVICAEVAGPENPYIEESPPYVKEDVQLFVFDFMKKNEQGFLSQEEKMELIEKYNLPHVEILGRFTASEEGIKKIKEILKRFNEEGREGVVFKEDSERNKRAKYITSYANLMDIKTNAKNMLQLPPEYYTNRILRLVLFMYEEGLKTTEHLYEELGRAFIDGLFQAIEQFEKEHKVYKTFTCKFRKKENAIALLELLSKTSKHIQVKERRLEKEGDYWRLEFDKVFLNMTGLLGHLLSGGIVYD”, the protein production entry is “not failed”.

Take “MISRRTFALAAVASVLLGGTFVGAKAGLSYLPPLLFVALRFDIAAVVLLGYVVVTRSRDELLPRTRGDVLGILSTGLFALGLANALIFVGQQSATSAVAAIIFSLNPILTPVFAAILLSDERLSARGGLGMVIGLLGVGLVVSPDPAMLLSGGIGKLILFAGAASAALGSVLIRWSGGGLSSTVRTAWALPVAAALCHALSIGMGESAATAVWSPTAIAALLYVGIFAGAIAYIAYFGLLDVTGAIQANLIFYVVPVVSTLGGWALLGEAITPTAVAGFLTIFTGFVVLGSESVDIRALLPATTDEGDTVSESLGIADEQRGFESD”: the protein production result was “failed”. The same measure for “MISVCIATYNGEKYLAEQLDSILLQVSEEDELIISDDGSTDHTLEILRTYAANYPQIQLLQGPGQGVIANFAFALTHTKGEVIFLADQDDVWLPNKVTTVTEYFETHPDIQVVISDLKIVDADLQVTNPSYFKFRKVKPGFWRNAIKSGYIGAGMAFRQEMKNVILPIPPEVPMHDMWIGLLAARKKQTGLIKEPLVLYRRHGANVSPIITKTSFQQKLNWRVNLLKALHQRLKEQRLEHHHHHH”: “not failed”; for “MITDCCPGFGSVAKYIAVSMLEASFDVASMAKTSTKVFILEVMGRHAGWIAAAGGLASNEDHEVPIIILFPEVTFDQEKFLAKTDHYVKEYGYCTVVVSEGVKGTDGKFLSDQGLRDAFGHAQLGGVAPVIANIVKNGLGLEHHHHHH”: “not failed”; for “MITDEHIELFLAQAHRYGDAKLMLCSSGNLSWRIGEEALISGTGSWVPTLAKEKVSICNIASGTPTNGVKPSMESTFHLGVLRERPDVNVVLHFQSEYATAISCMKNKPTNFNVTAEIPCHVGSEIPVIPYYRPGSPELAKAVVEAMLKHNSVLLTNHGQVVCGKDFDQVYERATFFEMACRIIVQSGGDYSVLTPEEIEDLEIYVLGKKTK”: “not failed”. Consider “MITIDALGQVCPIPVIRAKKALAELGEAGGVVTVLVDNDISRQNLQKMAEGMGYQAEYLEKDNGVIEVTIVAGEGCAVETSGTAADSGLVVAIGRNTMGEGSEELGRILLKGFIYSLRELTPPPARLLFFNSGAHLTSKDSNSIEDLKAMAAQGTIIQTCGTCLNYYGITEQLAVGQVANMYDIVTAMTEAKRLINI”, for which the protein production entry is “failed”.

Turning to “MITLAVRLKNLAFLLIAVLALSFLGIRYADLGRYVGVADYYTVDVHLPRTGGLFTHSDVTYRGVSVGRVGPIDLTAEGVVAELRIKKSAPRIPADTKAVVAGLSAVGEQYIDLRPESDGSPYLADGTRIEQADTEVPAPVTDVLTSVDDLASSVPLEDLRTVVDEFGKAFDGHGDDLQVLLDSGSDFVEAADRALPSTTLLINDGETVLRTQAQEARAIRDFAVGAKDLAAALKGSDADLRRLLAVTPEAATQVSGLLRDLDPSLGVVLANLLTTSEVAVTRQRGIEELLVKYPAAVSAGATAVDGGKLDLGLAVTFFSPLPCTDGYGGTRYRNGLDLGTAPALNTDAACTAPASGGKNVRGSANAPKSGAVPDPATPGSLPSGGGRTTPAGGGSPARDGSTALPGALALPGQSGEAPAGLTGLLAPAAGGARLEHHHHHH”, the protein production result was “failed”. Take “MITLTKEGGPADLDGVTHLSIGVSWDPTAGSSGGVLGKLRRKTGTDLDLIAVAMQGGDPVRLAGLDSLDPMGNGSLLHSGDNQTGHGDGDDETVTVEFARLPSAITSIVFVAAAYKKGSSFQKARNISFKVYDATGGSSEQVADIWPSLLSQDNGCAVAKAVRVGGTWKLEVVNETGKIKQGDEHALMRFAVSK”: the protein production result is reported as “failed”. The same measure for “MITMKISSRFSIAVHILSILKNNPSSLCTSDYMAESVNTNPVVIRKIMSYLKQAGFVYVNRGPGGAGLLKDLHEITLLDVYHAVNVVEEDKLFHIHEQPNPDCPIGANIQAVLEIILIQAQSAMEEVLRNITMGQLFETLQEKMNA”: “not failed”; for “MITRLTDIELEQIRGVIFDLDGTLAHSNPDFKGLRAALGIGSGTDILEHIHSLETTVAKMQALEIVHDYELESSRQASWIEGAQALIAFLKTRQLPLAILTRNMPEAAKITIEKLGIDIPLVLTRYDAEPKPHPQGIYLICEQWQLNPADILYVGDYLFDLQTAQNAGSRCALYCPEDVPDYAQAADLLVSCYHSLIQAWPK”: “failed”; for “MITSRSTGELVIPVSRRINNKDGNFGGVFLVTLRVQYFSRFYADFRMDEQGVIVLADQNGTIMVRHPFDTNMIGRNIAKGDIFSKYLPHASRGVHMVVAITDKVERMYGYERLNRYPLVVLAGKSKRAILGSWYESLYGSLIMLCLILPIPVLFATLISRQIKTTLKVEDELRLAYAAVEAIAMQDSLTGLANRRQLDVVLPAEIKRAKRTSQPLGVIMVDIDYFKRYNDYYGHPAGDLCIKAIANVLKNHTRRAGNLAARYGGEELTVLLPSCDQAAVLAAAERIVESIRGLQIAHDDSPEGYLTVSVGAYSYSAFNKEVDASGLLKCADDALYAAKQAGRNRARLSA”: “failed”.

Take “MIVDFETHFITEACIDYLTQRQEVPKLVPDLNGAYTMCFTPDVSLFHTSALMEELLSLNEQRLAIMDQAGVTIQVLSLTTINGIDSCPGDENKSTALAREVNDQLYSAIQRHPERFKGFASISPYDVKEGVKELERAISQLGFVGWLTHSNFGQDNYLDDKTYWPLLEAAEGLNIPIYLHPNVPIMREFGKYGFALGGSALGFEFDTALCLMRMILGGVFDAFPKLKIMLGHLGETMPFLMERLDHLYRIPDLKAYRPSIQRIPSEVLRQNVYITTSGRFFVPALRYVLEVMGEDRVLFASDYPMESLLDATRFIQDSDLSNQTKQKIFSINAKNLNLILEHHHHHH”: the protein production entry is “failed”. As for “MIVFDGHNDVLTELVRAGGRAAAGGFLSGLPGQLDLPRARAGGFGGGFFALWARSEGATDFSTLGPEYDLPLPEPVPEAQAWEMIRAQADTLVALEEAGAVRICTSTAQIARARDEGLLGAILHLEGAEGIGPDFYELEELYALGLRSLGPVWSRPNAFGHGVPFRYPSGPDIGPGLTERGRALIARCEELRILIDLSHLNLAGFREVAALSKRPLVATHSNAHARVPHARNLTDEQLRIMAESGGLAGVNFESTFLRPDGRPDDDIPAAWLLAQFDHLLDRLGEEGVAIGSDYDGCTPPAWLNSVDKLPALIAAMERHGYPAARIERICWGNWMRVLAETWGESA”, the protein production entry is listed as “failed”. For the sequence “MIVLALLGVLLLSVYAYKTKKLTLSGAISAFVVGALISFGLGFKGLLLLAIFFFTSGFWSRFYQERKENEITAKGSTRDGWQVLANGGFAAICALLFSILQDPIYICGFVASLAAANADTWASEVGPLAKRRPIHIIKWKPVDAGTSGAVSAIGTAAAFAGSFIIVVVSIFFWWSSSFASHHLLFSLTLAGFLGNLFDTLVGATGQVLYQCPRCGLETERKIHCNGPTEKKYGLRFLNNDTVNAICTGTGALFGIVAGLILL”, the protein production entry is “failed”.

As to “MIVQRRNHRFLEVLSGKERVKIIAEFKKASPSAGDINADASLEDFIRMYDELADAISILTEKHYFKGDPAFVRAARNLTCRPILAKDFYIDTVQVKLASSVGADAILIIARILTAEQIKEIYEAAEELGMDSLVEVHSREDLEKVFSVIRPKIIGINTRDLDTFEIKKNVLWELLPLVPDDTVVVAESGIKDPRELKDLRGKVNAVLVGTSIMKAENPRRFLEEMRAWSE”, the protein production result was “not failed”. As for “MIVSVVIPVAKEGNTLYERIHLINKHFNSLSSSHKFSYEIILVSDIFHKPTLKAMIRLAKENVAKCLLLTQRIGKGGSIKNAIPFSRGDYIVILDADIPVRPIFINQAVVLAMNLGIDLIIANRVYRTHSLLRRVLSVAYNSLVNLLFKTGLRDHQAGLKILSRRAAKIILMKRTRTDGLAYDTEIVVWAKRHGLRYRAVNVVWREQREGSTIPPMRALLTMLADLIMLRLLTLAGKYVALQKLVIGRVIDLGNIHTVGQEFMTVIRASRPKNHLLNVLRKLYIAVALRR”, the protein production result was “failed”.

Consider “MIWIILASFLMYSIFVMWFSWYKTRGTDLSSSDGYFLGGRSLTGIVIASSLILTNLSTEQVVGLNGQAFGESMVVMAWEVTAPIALILMAFVFLPRYLKLGITTIPDFLEQRFDLRTRQIVSVLFLLGYATVFLPTVLYSGALVIDSIFSLSSVMDISPFMIVLCISIAIGIISCGYVILGGLKACAMSDTINGIGLIIGGLLIPILALFVLGRGDFASGVGELVSANPTKLNAIGNDQASVPWAVLLTGLLFNNLFYWCTNQSIIQRTLAAKNLAEGQKGVLFAGMFKIFGAAFLVLPGIIAYLLYGDVLANADMAYPSLVIDVMPVALSGFLAAVLFGAILSSFNNVLNSSITLFTLDIYKPIFKPNAKEPELVKAGRIFAACLAITAVVIAPFILYAPQGLYYFLQEMNGFYSLPIIAMVIVGFFSKYVPASAPKVLVAVHVVLYAGSKVVLGEVNFLYVLSVLFPINVLVMLIVGRLKPRETSFVLPTANKVDLTPWKYAKPFSAFILLTMLGVYTFFSPLGVAESSGGYTIYQFIFFIVTLAFIGGVVLFWKKTDRIRGGRVPLNQMYPFNQKSG”, for which the protein production entry is on record as “failed”.

For the sequence “MIWMAEIEGIYTIWLREMKRFFRYRSRIVTSIVTPLLWLIIFGTGLGAAVRFGGVPGGYKAFIYPGIIGQTVLFTSIFSGVSVIIDRQYGFLKEILVAPISRESMVVGKALGISTASMIQAAILLALSFIVGITMSPQCFIVSMVIALIISMGLGGLGLVIAAFTDSMEGFNLIMSFIVLPIFLLSGALFPITGLPAWLQGAVYINPLTYAVDALRFTILRRSVLPLEVNLLVITIFAVIAVLIAAFLFNRKEQNLM”, the protein production entry is on record as “failed”.

As to “MIYFIRKKKWLKQLEKGEAMKYAILIGDGMADYPIEKLGNRTILQAARTPAMDSIAARGRAGLAKTVPDSFPPGSDVANMSILGYDPATYYSGRAPLEAASMGVALAADDVAFRCNLITTEHGMIKDYSAGHISSDEAEILIDTLDYELSTENIRFYPGISYRHLIVAGNNLGAETECTPPHDITGEKIDKYLPRGKDGEFFSELIEASKVVLELHPVNLKRVEEGKNPANSIWVWGQGYAPKFTAFMKLYGKKGAVISAVDLLKGIGIYAGLDVIEVHGATGYLDTNYEGKVRAAIEALKTRDLVFVHVEAPDEAGHEGSIEKKLKAVEDFDSRIVAPILEYAENSDEPFTILVLPDHPTPISVKTHTRDPIPFAIYRTDKPETDNVEAFDEESVKNGSMGLVKASDLIGILIKS”, the protein production entry was “failed”. For “MIYLRKANERGHANHGWLDSWHTFSFANYYDPNFMGFSALRVINDDVIEAGQGFGTHPHKDMEILTYVLEGTVEHQDSMGNKEQVPAGEFQIMSAGTGIRHSEYNPSSTERLHLYQIWIMPEENGITPRYEQRRFDAVQGKQLVLSPDARDGSLKVHQDMELYRWALLKDEQSVHQIAAERRVWIQVVKGNVTINGVKASTSDGLAIWDEQAISIHADSDSEVLLFDLPPV”, the protein production result is on record as “not failed”. For the sequence “MIYQPDENRYHTMEYRRCGRSGVKLPAISLGLWHNFGDTTRVENSRALLQRAFDLGITHFDLANNYGPPPGSAECNFGRILQEDFLPWRDELIISTKAGYTMWDGPYGDWGSRKYLIASLDQSLKRMGLEYVDIFYHHRPDPETPLKETMKALDHLVRHGKALYVGISNYPADLARQAIDILEDLGTPCLIHQPKYSLFERWVEDGLLALLQEKGVGSIAFSPLAGGQLTDRYLNGIPEDSRAASGSRFLKPEQITADKLEKVRRLNELAARRGQKLSQMALAWVLRNDNVTSVLIGASKPSQIEDAVGMLANRRFSAAECAEIDAILEGRF”, the protein production entry was “failed”.
